Values of other authors, collected in article PMC6236854 (Molecular Imaging, 2018).
Ends that are not written are not given here.

Key:
GHSR1a = conditions: read-out: half-maximal inhibitory concentration (IC50), binding affinity
[1] = not given; remark: listed apart in the source

ghrelin (GSSFLSPEHQRVQQRKESKKPPAKLQPR; ends and bridges not checked; UniProt Q9UBU3 24-51, looked up) [human ghrelin]
IC50 (GHSR1a): 7.63 nM | in vitro half-life in human serum: 4 h | in vitro half-life in rat serum [1]: 0.5 h
